The labels stand for the following.
T1: recombinant HERC2 2540-2700 (human, UniProt O95714 2540-2700)
T1 construct: HERC2, residues 2540-2700; source: E. coli, purified (Ni-IMAC, Senp1 cleavage, Q-sepharose, Superdex 75); not shown: His6-Sumo, N-terminal, cleaved
T1 sequence (looked up): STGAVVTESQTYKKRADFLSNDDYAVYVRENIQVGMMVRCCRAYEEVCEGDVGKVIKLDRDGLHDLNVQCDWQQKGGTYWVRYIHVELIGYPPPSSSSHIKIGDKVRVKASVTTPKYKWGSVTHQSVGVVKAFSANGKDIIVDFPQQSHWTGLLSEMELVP

B1: recombinant HERC2 CUL7 domain (amino acids 2553-2639) (domain or fragment)
chain: not shown
notes: also called minimal CUL7 domain; source: E. coli, purified (Ni-IMAC, Senp1 cleavage, Q-sepharose, Superdex 75); not shown: His6-Sumo, N-terminal, cleaved
B2: NCOA4 383-522-GST (domain or fragment, human, UniProt Q13772-1 383-522, looked up)
chain: SMVTEDWLVQNHQDPCKVEEVCRANEPCTSFAECVCDENCEKEALYKWLLKKEGKDKNGMPVEPKPEPEKHKDSLNMWLCPRKEVIEQTKAPKAMTPSRIADSFQVIKNSPLSEWLIRPPYKEGSPKEVPGTEDRAGKQK
notes: also called NCOA4-GST; source: E. coli BL21 (DE3) Rosetta, purified (Ni-IMAC, glutathione Sepharose, Senp1 cleavage); not shown: His6-Sumo, N-terminal, cleaved; GST, C-terminal, kept
B3: NCOA4 475-522-GST (domain or fragment, human, UniProt Q13772-1 475-522, looked up)
chain: KAMTPSRIADSFQVIKNSPLSEWLIRPPYKEGSPKEVPGTEDRAGKQK
notes: source: E. coli BL21 (DE3) Rosetta, purified (Ni-IMAC, glutathione Sepharose, Senp1 cleavage); not shown: His6-Sumo, N-terminal, cleaved; GST, C-terminal, kept

Details in all cases: both partners purified
The target of the test “NCOA4 383-522-GST” is B2. Briefly: pull-down; NCOA4-GST fragments on glutathione Sepharose 4B (in one panel pre-treated with DFO), mixed with 50 μg recombinant HERC2 fragments; 30 min at 4°C; 150 mM NaCl, 20 mM Tris pH 7.4, 2 mM DTT, 0.5% Nonidet P-40; Coomassie stain.
In test [1] the target is T1, recombinant HERC2 2540-2700. Described as above.
For test [2], the target named is T2, recombinant FTH1-only ferritin complex, wild type (human, UniProt P02794 2-183).
T2 construct: Purified as 450 kDa complexes; also called FTH1^WT; FTH1-only complexes; source: E. coli, purified (Ni-IMAC, Senp1 cleavage, Q-sepharose, Superose 6 gel filtration); not shown: His6-Sumo, N-terminal, cleaved; copies: 24
Briefly: pull-down; NCOA4 383-522-GST on glutathione Sepharose 4B, mixed with 50 μg recombinant FTH1-only or FTL-only complexes; 30 min at 4°C; 150 mM NaCl, 20 mM Tris pH 7.4, 2 mM DTT, 0.5% Nonidet P-40; Coomassie stain.

Test [3] addresses T3, apoferritin purified from horse spleen (containing both FTH1 and FTL) (horse, UniProt Q8MIP0 1-182; P02791 1-175).
T3 construct: ferritin heavy chain (FTH1), horse, from spleen apoferritin; ferritin light chain (FTL), horse, from spleen apoferritin; Ferritin is a complex of 24 subunits, a mixture of heavy and light chains; also called horse spleen apoferritin; apoferritin purified from equine spleen; source: bought: Sigma A3641, apoferritin purified from equine spleen
Briefly: pull-down; NCOA4-GST fragments on glutathione Sepharose 4B, mixed with 50 μg apoferritin from equine spleen; 30 min at 4°C; 150 mM NaCl, 20 mM Tris pH 7.4, 2 mM DTT, 0.5% Nonidet P-40; SDS-PAGE and Coomassie stain.

T3 sequence (Q8MIP0 whole entry, chain 1 of 2): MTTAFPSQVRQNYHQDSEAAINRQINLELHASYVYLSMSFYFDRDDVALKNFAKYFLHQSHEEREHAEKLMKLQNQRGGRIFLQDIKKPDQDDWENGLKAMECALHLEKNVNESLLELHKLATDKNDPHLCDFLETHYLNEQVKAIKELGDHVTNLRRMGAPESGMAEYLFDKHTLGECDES
T3 sequence (P02791 whole entry, chain 2 of 2): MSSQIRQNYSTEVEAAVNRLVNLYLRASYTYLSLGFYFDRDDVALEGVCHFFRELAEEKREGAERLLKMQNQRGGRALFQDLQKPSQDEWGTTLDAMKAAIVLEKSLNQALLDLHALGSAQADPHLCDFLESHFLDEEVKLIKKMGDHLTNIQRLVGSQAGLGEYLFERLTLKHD
T2 sequence (P02794 2-183, one chain of several): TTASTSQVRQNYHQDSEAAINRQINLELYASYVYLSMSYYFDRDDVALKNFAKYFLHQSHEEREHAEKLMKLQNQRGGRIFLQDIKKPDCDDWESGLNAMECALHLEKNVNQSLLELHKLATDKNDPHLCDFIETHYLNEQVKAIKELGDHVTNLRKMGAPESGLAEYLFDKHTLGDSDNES

Take B1: in the test with NCOA4 383-522-GST, the binding result was “binds”.
For the molecule B2, the binding result in test [1], in test [2] and in test [3] was “binds” in each case.
With B3, the binding result in test [3] is “binds”.

The record behind these values is publication PMC4592949 (eLife, 2015).
